From patent US20240218374, “Nucleic Acid Compounds That Bind Coronavirus Proteins” (Somalogic Operating Co., Inc., published 2024)

Biological target: Spike RBD (SARS-CoV-2, UniProt P0DTC2 SEQ:1-223)
Assay: filter

B1: 26874-29_4 (SL1111) (ssDNA)
DNA: CCTTGGGATACTATGCGTCCGACCGCTCGGACGGAGAAGG
modifications: Y=Tyr-dU, p=Nap-dC; printed …pYAYGpGYppGAppGpYpGGApGGAGAAGG [Tyr-dU: 9,12,14,18,27; Nap-dC: 11,16,19,20,23,24,26,28,32]
- Kd: 0.3 nM
